Laboratory results as given in publication PMC10035430.

Tests used:
[1] = target: GWS1B form II RubisCO (CbbM) from an uncultivated Gallionellaceae species (uncultivated Gallionellaceae sp. (groundwater aquifer metagenome)); assay: SEC-MALS
[2] = target: GWS1B form II RubisCO (CbbM) from an uncultivated Gallionellaceae species (uncultivated Gallionellaceae sp. (groundwater aquifer metagenome)); assay: SEC
[3] = target: GWS1B form II RubisCO (CbbM) from an uncultivated Gallionellaceae species (uncultivated Gallionellaceae sp. (groundwater aquifer metagenome)); assay: crystal structure

Measured: stoichiometry N

GWS1B form II RubisCO (CbbM) from an uncultivated Gallionellaceae species (enzyme)
6: [1] | [2] | [3]
